Laboratory results reported in PMC4995487, “Tyrosine phosphorylation and protein degradation control the transcriptional activity of WRKY involved in benzylisoquinoline alkaloid biosynthesis”.

Biological target: GST-CjWRKY1 WT (Coptis japonica, UniProt A0ZT25 1-185)
Assay: EMSA; 0.05 ug/ul poly(dI-dC), 1 mM MgCl2; EMSA: 20 fmol biotin probe, 3 ug protein, 1x LightShift binding buffer, 1 mM MgCl2, 0.5 mM EDTA, 0.05 ug/ul poly(dI-dC), 20 min at 4 C, 5% polyacrylamide gel; pH and salt not given
Conditions: protein: recombinant; tags: N-terminal GST (pGEX-6P-1); label: biotin; blunt

Chain of GST-CjWRKY1 WT (A0ZT25 entry or part of it): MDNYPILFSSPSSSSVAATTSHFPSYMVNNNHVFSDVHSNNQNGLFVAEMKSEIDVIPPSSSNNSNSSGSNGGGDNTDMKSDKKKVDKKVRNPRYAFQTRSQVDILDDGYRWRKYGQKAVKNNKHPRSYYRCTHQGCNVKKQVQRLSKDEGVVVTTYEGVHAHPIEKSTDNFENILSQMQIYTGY

B1: 3x W-box probe (CYP80B2 promoter) (dsDNA)
DNA 1: CTGCTGACTAGCTGACTAGCTGACTAGATGG
DNA 2: CCATCTAGTCAGCTAGTCAGCTAGTCAGCAG
Does B1 bind?
Result: binds
